Earlier results, collected in publication PMC10606834, “Is the Neuropeptide PEN a Ligand of GPR83?” (International Journal of Molecular Sciences, 2023).

Tests used:
GPR83 = test system: GPR83
Text: G protein-coupled receptor 83 (GPR83), also termed glucocorticoid-induced receptor (GIR), GPR72, KIAA1540, or JP05, is a class A G protein-coupled receptor with predominant expression in the […] and proposed function in the regulation of food intake and in anxiety-like behavior [1, 2, 3]. […] A potential role of GPR83 in regulatory T cell development and function has not been confirmed. […] The present study was initiated to evaluate PEN as a ligand of GPR83. […] While one end of the peptide may be crucial for binding the receptor, an absolute requirement of both peptide termini to be free of another ...

[1] = test system: GPR83 (murine Att20 and STC-1 cells); details: pilot screen of peptide hormone library, ref [14]
Text: While the earlier study employed CHO cells from Cricetulus griseus and Neuro2A cells from Mus musculus overexpressing human GPR83 [10], this study used human HEK293 and U2OS c ...

B1: FAM237A: 9 kDa protein, termed family with sequence similarity 237 member A (protein, UniProt A0A1B0GTK4 34-181, looked up)
Protein FAM237A: HSQTDLLALSQADPQCWESSSVLLLEMWKPRVSNTVSGFWDFMIYLKSSENLKHGALFWDLAQLFWDIYVDCVLSRNHGLGRRQLVGEEEKISAAQPQHTRSKQGTYSQLLRTSFLKKKELIEDLISMHVRRSGSSVIGKVNLEIKRK
GPR83 ligand and agonist (GPR83; comparative evaluation, multiple assay systems, ref [16]): only FAM237A was confirmed as a GPR83 ligand and agonist | interaction with GPR83 (GPR83; multiple luminescence-based interaction and activation assays, ref [16]): confirmed the interaction of FAM237A | activation of GPR83 (GPR83; peptide hormone library screening study, ref [14]): activate GPR83 | GPR83-mediated β-arrestin recruitment [1]: activator of GPR83-mediated β-arrestin recruitment
